Reference: patent US20230103631A1, “PEPTIDES AS SELECTIVE GIP RECEPTOR AGONISTS” (Sanofi, priority 2020, published 2023)
*1 amine or outer side, *2 acyl side, *3 side chain or, on linkers, in order; H or OH if unused. Where no end group is shown, it is not given here. Side-chain parts run from the residue outwards. [ ]: non-standard residue; d: D form. The star is where a group is joined. C20 diacid = O=C(O)CCCCCCCCCCCCCCCCCCC(=O)*; C18 diacid = O=C(O)CCCCCCCCCCCCCCCCC(=O)*; γGlu = O=C(O)[C@H](CCC(=O)[*:2])N[*:1]; NMeY = CN[C@@H](Cc1ccc(O)cc1)C(=O)O; AEEA = NCCOCCOCC(=O)O; Aib = CC(C)(N)C(=O)O

T1: human GIP receptor (human, UniProt P48546 22-466)
T1 sequence (looked up): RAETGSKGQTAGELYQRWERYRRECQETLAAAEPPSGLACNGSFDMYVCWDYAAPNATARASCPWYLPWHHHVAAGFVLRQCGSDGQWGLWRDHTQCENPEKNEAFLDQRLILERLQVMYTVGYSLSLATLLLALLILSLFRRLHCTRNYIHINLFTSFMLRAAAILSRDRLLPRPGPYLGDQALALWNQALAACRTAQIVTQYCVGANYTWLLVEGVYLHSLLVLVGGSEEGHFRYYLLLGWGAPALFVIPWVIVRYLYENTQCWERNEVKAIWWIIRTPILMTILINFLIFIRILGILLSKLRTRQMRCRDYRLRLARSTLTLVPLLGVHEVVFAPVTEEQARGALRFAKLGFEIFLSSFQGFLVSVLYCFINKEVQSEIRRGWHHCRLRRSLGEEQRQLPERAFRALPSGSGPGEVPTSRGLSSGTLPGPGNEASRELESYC

B1: SEQ ID NO: 12 (peptide)
peptide: Y[Aib]EGTFISDLSI[Aib]K([AEEA-AEEA-AEEA-γGlu-C18 diacid])DRIHQEEFIEWLLAQGPSSGAPPPS-NH2
modifications: N-terminus assumed
SMILES: CC[C@H](C)[C@H](NC(=O)[C@H](Cc1ccccc1)NC(=O)[C@H](CCC(=O)O)NC(=O)[C@H](CCC(=O)O)NC(=O)[C@H](CCC(N)=O)NC(=O)[C@H](Cc1c[nH]cn1)NC(=O)[C@@H](NC(=O)[C@H](CCCNC(=N)N)NC(=O)[C@H](CC(=O)O)NC(=O)[C@H](CCCCNC(=O)COCCOCCNC(=O)COCCOCCNC(=O)COCCOCCNC(=O)CC[C@H](NC(=O)CCCCCCCCCCCCCCCCC(=O)O)C(=O)O)NC(=O)C(C)(C)NC(=O)[C@@H](NC(=O)[C@H](CO)NC(=O)[C@H](CC(C)C)NC(=O)[C@H](CC(=O)O)NC(=O)[C@H](CO)NC(=O)[C@@H](NC(=O)[C@H](Cc1ccccc1)NC(=O)[C@@H](NC(=O)CNC(=O)[C@H](CCC(=O)O)NC(=O)C(C)(C)NC(=O)[C@@H](N)Cc1ccc(O)cc1)[C@@H](C)O)[C@@H](C)CC)[C@@H](C)CC)[C@@H](C)CC)C(=O)N[C@@H](CCC(=O)O)C(=O)N[C@@H](Cc1c[nH]c2ccccc12)C(=O)N[C@@H](CC(C)C)C(=O)N[C@@H](CC(C)C)C(=O)N[C@@H](C)C(=O)N[C@@H](CCC(N)=O)C(=O)NCC(=O)N1CCC[C@H]1C(=O)N[C@@H](CO)C(=O)N[C@@H](CO)C(=O)NCC(=O)N[C@@H](C)C(=O)N1CCC[C@H]1C(=O)N1CCC[C@H]1C(=O)N1CCC[C@H]1C(=O)N[C@@H](CO)C(N)=O
B2: SEQ ID NO: 14 (peptide)
peptide: Y[Aib]EGTFISDLSI[Aib]K([AEEA-AEEA-γGlu-γGlu-C18 diacid])DRIHQEEFIEWLLAQGPSSGAPPPS-NH2
modifications: N-terminus assumed
SMILES: CC[C@H](C)[C@H](NC(=O)[C@H](Cc1ccccc1)NC(=O)[C@H](CCC(=O)O)NC(=O)[C@H](CCC(=O)O)NC(=O)[C@H](CCC(N)=O)NC(=O)[C@H](Cc1c[nH]cn1)NC(=O)[C@@H](NC(=O)[C@H](CCCNC(=N)N)NC(=O)[C@H](CC(=O)O)NC(=O)[C@H](CCCCNC(=O)COCCOCCNC(=O)COCCOCCNC(=O)CC[C@H](NC(=O)CC[C@H](NC(=O)CCCCCCCCCCCCCCCCC(=O)O)C(=O)O)C(=O)O)NC(=O)C(C)(C)NC(=O)[C@@H](NC(=O)[C@H](CO)NC(=O)[C@H](CC(C)C)NC(=O)[C@H](CC(=O)O)NC(=O)[C@H](CO)NC(=O)[C@@H](NC(=O)[C@H](Cc1ccccc1)NC(=O)[C@@H](NC(=O)CNC(=O)[C@H](CCC(=O)O)NC(=O)C(C)(C)NC(=O)[C@@H](N)Cc1ccc(O)cc1)[C@@H](C)O)[C@@H](C)CC)[C@@H](C)CC)[C@@H](C)CC)C(=O)N[C@@H](CCC(=O)O)C(=O)N[C@@H](Cc1c[nH]c2ccccc12)C(=O)N[C@@H](CC(C)C)C(=O)N[C@@H](CC(C)C)C(=O)N[C@@H](C)C(=O)N[C@@H](CCC(N)=O)C(=O)NCC(=O)N1CCC[C@H]1C(=O)N[C@@H](CO)C(=O)N[C@@H](CO)C(=O)NCC(=O)N[C@@H](C)C(=O)N1CCC[C@H]1C(=O)N1CCC[C@H]1C(=O)N1CCC[C@H]1C(=O)N[C@@H](CO)C(N)=O
B3: SEQ ID NO: 16 (peptide)
peptide: Y[Aib]EGTFISDLSI[Aib]K([Gly-Gly-Gly-γGlu-C18 diacid])DRIHQEEFIEWLLAQGPSSGAPPPS-NH2
modifications: N-terminus assumed
SMILES: CC[C@H](C)[C@H](NC(=O)[C@H](Cc1ccccc1)NC(=O)[C@H](CCC(=O)O)NC(=O)[C@H](CCC(=O)O)NC(=O)[C@H](CCC(N)=O)NC(=O)[C@H](Cc1c[nH]cn1)NC(=O)[C@@H](NC(=O)[C@H](CCCNC(=N)N)NC(=O)[C@H](CC(=O)O)NC(=O)[C@H](CCCCNC(=O)CNC(=O)CNC(=O)CNC(=O)CC[C@H](NC(=O)CCCCCCCCCCCCCCCCC(=O)O)C(=O)O)NC(=O)C(C)(C)NC(=O)[C@@H](NC(=O)[C@H](CO)NC(=O)[C@H](CC(C)C)NC(=O)[C@H](CC(=O)O)NC(=O)[C@H](CO)NC(=O)[C@@H](NC(=O)[C@H](Cc1ccccc1)NC(=O)[C@@H](NC(=O)CNC(=O)[C@H](CCC(=O)O)NC(=O)C(C)(C)NC(=O)[C@@H](N)Cc1ccc(O)cc1)[C@@H](C)O)[C@@H](C)CC)[C@@H](C)CC)[C@@H](C)CC)C(=O)N[C@@H](CCC(=O)O)C(=O)N[C@@H](Cc1c[nH]c2ccccc12)C(=O)N[C@@H](CC(C)C)C(=O)N[C@@H](CC(C)C)C(=O)N[C@@H](C)C(=O)N[C@@H](CCC(N)=O)C(=O)NCC(=O)N1CCC[C@H]1C(=O)N[C@@H](CO)C(=O)N[C@@H](CO)C(=O)NCC(=O)N[C@@H](C)C(=O)N1CCC[C@H]1C(=O)N1CCC[C@H]1C(=O)N1CCC[C@H]1C(=O)N[C@@H](CO)C(N)=O
B4: SEQ ID NO: 13 (peptide)
peptide: [NMeY][Aib]EGTFISDLSI[Aib]K([AEEA-AEEA-γGlu-C18 diacid])DRIHQEEFIEWLLAQGPSSGAPPPS-NH2
modifications: N-terminus assumed
SMILES: CC[C@H](C)[C@H](NC(=O)[C@H](Cc1ccccc1)NC(=O)[C@H](CCC(=O)O)NC(=O)[C@H](CCC(=O)O)NC(=O)[C@H](CCC(N)=O)NC(=O)[C@H](Cc1c[nH]cn1)NC(=O)[C@@H](NC(=O)[C@H](CCCNC(=N)N)NC(=O)[C@H](CC(=O)O)NC(=O)[C@H](CCCCNC(=O)COCCOCCNC(=O)COCCOCCNC(=O)CC[C@H](NC(=O)CCCCCCCCCCCCCCCCC(=O)O)C(=O)O)NC(=O)C(C)(C)NC(=O)[C@@H](NC(=O)[C@H](CO)NC(=O)[C@H](CC(C)C)NC(=O)[C@H](CC(=O)O)NC(=O)[C@H](CO)NC(=O)[C@@H](NC(=O)[C@H](Cc1ccccc1)NC(=O)[C@@H](NC(=O)CNC(=O)[C@H](CCC(=O)O)NC(=O)C(C)(C)NC(=O)[C@H](Cc1ccc(O)cc1)NC)[C@@H](C)O)[C@@H](C)CC)[C@@H](C)CC)[C@@H](C)CC)C(=O)N[C@@H](CCC(=O)O)C(=O)N[C@@H](Cc1c[nH]c2ccccc12)C(=O)N[C@@H](CC(C)C)C(=O)N[C@@H](CC(C)C)C(=O)N[C@@H](C)C(=O)N[C@@H](CCC(N)=O)C(=O)NCC(=O)N1CCC[C@H]1C(=O)N[C@@H](CO)C(=O)N[C@@H](CO)C(=O)NCC(=O)N[C@@H](C)C(=O)N1CCC[C@H]1C(=O)N1CCC[C@H]1C(=O)N1CCC[C@H]1C(=O)N[C@@H](CO)C(N)=O
B5: SEQ ID NO: 15 (peptide)
peptide: Y[Aib]EGTFISDLSI[Aib]K([AEEA-AEEA-γGlu-γGlu-C20 diacid])DRIHQEEFIEWLLAQGPSSGAPPPS-NH2
modifications: N-terminus assumed
SMILES: CC[C@H](C)[C@H](NC(=O)[C@H](Cc1ccccc1)NC(=O)[C@H](CCC(=O)O)NC(=O)[C@H](CCC(=O)O)NC(=O)[C@H](CCC(N)=O)NC(=O)[C@H](Cc1c[nH]cn1)NC(=O)[C@@H](NC(=O)[C@H](CCCNC(=N)N)NC(=O)[C@H](CC(=O)O)NC(=O)[C@H](CCCCNC(=O)COCCOCCNC(=O)COCCOCCNC(=O)CC[C@H](NC(=O)CC[C@H](NC(=O)CCCCCCCCCCCCCCCCCCC(=O)O)C(=O)O)C(=O)O)NC(=O)C(C)(C)NC(=O)[C@@H](NC(=O)[C@H](CO)NC(=O)[C@H](CC(C)C)NC(=O)[C@H](CC(=O)O)NC(=O)[C@H](CO)NC(=O)[C@@H](NC(=O)[C@H](Cc1ccccc1)NC(=O)[C@@H](NC(=O)CNC(=O)[C@H](CCC(=O)O)NC(=O)C(C)(C)NC(=O)[C@@H](N)Cc1ccc(O)cc1)[C@@H](C)O)[C@@H](C)CC)[C@@H](C)CC)[C@@H](C)CC)C(=O)N[C@@H](CCC(=O)O)C(=O)N[C@@H](Cc1c[nH]c2ccccc12)C(=O)N[C@@H](CC(C)C)C(=O)N[C@@H](CC(C)C)C(=O)N[C@@H](C)C(=O)N[C@@H](CCC(N)=O)C(=O)NCC(=O)N1CCC[C@H]1C(=O)N[C@@H](CO)C(=O)N[C@@H](CO)C(=O)NCC(=O)N[C@@H](C)C(=O)N1CCC[C@H]1C(=O)N1CCC[C@H]1C(=O)N1CCC[C@H]1C(=O)N[C@@H](CO)C(N)=O

Assays:
human GLP-1 receptor = human GLP-1 receptor (human, UniProt P43220 24-463); assay: cell-based or functional assay
human GIP receptor = molecular target: T1, human GIP receptor; assay: cell-based or functional assay

Row | Binder | EC50 hGLP-1R 0% HSA, cAMP in HEK-293 cells (human GLP-1 receptor) | EC50 hGIPR 0% HSA, cAMP in HEK-293 cells (human GIP receptor) | EC50 hGIPR 0.1% HSA, cAMP in HEK-293 cells (human GIP receptor)
1 | B1 | > 10000 pM | 0.26 pM | 2.38 pM
2 | B2 | > 10000 pM | 0.23 pM | 1.56 pM
3 | B3 | > 10000 pM | 0.19 pM | 2.55 pM
4 | B4 | > 10000 pM | 0.2 pM | 1.76 pM
5 | B5 | > 10000 pM | 0.34 pM | 7.65 pM
